Assay results reported in paper PMC8191293.
Substitutions are numbered along the chain they refer to. Names may count otherwise.

B1: peripheral myelin protein 22 (PMP22): L16P/N41Q (protein)
parent chain: MLLLLLSIIVLHVAVPVLLFVSTIVSQWIVGNGHATDLWQNCSTSSSGNVHHCFSSSPNEWLQSVQATMILSIIFSILSLFLFFCQLFTLTKGGRFYITGIFQILAGLCVMSAAAIYTVRHPEWHLNSDYSYGFAYILAWVAFPLALLSGVIYVILRKRE
B2: peripheral myelin protein 22 (PMP22): STT3B KO (protein)
parent chain: B1 parent chain with P16L
B3: peripheral myelin protein 22 (PMP22): C19 (protein)
parent chain: B1 parent chain with P16L
B4: peripheral myelin protein 22 (PMP22): NGI-1 (protein)
parent chain: B1 parent chain with P16L
B5: peripheral myelin protein 22 (PMP22): T118M/N41Q (protein)
parent chain: B1 parent chain with P16L, T118M
B6: peripheral myelin protein 22 (PMP22): A67T/N41Q (protein)
parent chain: B1 parent chain with P16L, A67T
B7: peripheral myelin protein 22 (PMP22): N41Q (protein)
parent chain: B1 parent chain with P16L
B8: peripheral myelin protein 22 (PMP22): G93R/N41Q (protein)
parent chain: B1 parent chain with P16L, G93R
B9: peripheral myelin protein 22 (PMP22): STT3A KO (protein)
parent chain: B1 parent chain with P16L
B10: peripheral myelin protein 22 (PMP22): UGGT1 KO (protein)
parent chain: B1 parent chain with P16L

Key:
[1] = flow cytometry, total cellular PMP22, HEK293; settings: glycan lost; control: same variant with N41 intact
[2] = flow cytometry, cell surface PMP22, rat Schwann cells; settings: glycan lost; control: same variant with N41 intact
[3] = flow cytometry, total PMP22, primary rat Schwann cells; settings: glycan lost; control: same variant with N41 intact
[4] = single-cell flow cytometry, surface/total PMP22, HEK293; settings: glycan lost
[5] = flow cytometry, trafficking efficiency, rat Schwann cells; settings: glycan lost; control: same variant with N41 intact
[6] = flow cytometry, normalized trafficking efficiency of WT PMP22; settings: glycan lost; control: WT PMP22 in untreated or DMSO-treated HEK293
[7] = flow cytometry, trafficking efficiency of CMTD PMP22 variants; settings: glycan lost; control: same CMTD variant in untreated HEK293
[8] = flow cytometry, cell surface PMP22, HEK293; settings: glycan lost; control: same CMTD variant with N41 intact
[9] = flow cytometry, total cellular PMP22; settings: glycan changed form; control: WT PMP22 in parental HEK293
[10] = flow cytometry, trafficking efficiency; settings: glycan changed form; control: WT PMP22 in parental HEK293

Row | Protein | expression_or_secretion [1] | localisation_or_trafficking, fold_change [6] | localisation_or_trafficking [7] | localisation_or_trafficking [8] | also measured
1 | B1 | no change |  |  |  | localisation_or_trafficking [2]: increases; expression_or_secretion [3]: no change; localisation_or_trafficking, other: trafficking efficiency ([4]; control: L16P PMP22): increases, 34 ± 10 vs 3 ± 1; localisation_or_trafficking [5]: increases
2 | B2 |  | increases | no change |  | 
3 | B3 |  | increases |  |  | 
4 | B4 |  | increases | increases |  | 
5 | B5 | increases |  |  | increases | 
6 | B6 | increases |  |  | increases | 
7 | B7 |  |  |  |  | localisation_or_trafficking, other: trafficking efficiency ([4]; control: wild type): increases, 53 ± 7 vs 19 ± 5
8 | B8 | increases |  |  | increases | 
9 | B9 |  | no change | no change |  | 
10 | B10 |  |  |  |  | expression_or_secretion [9]: decreases; localisation_or_trafficking [10]: decreases
